Measurements published in publication PMC5663973.

Molecular target: DHR2 domain of human DOCK5 (residues I1212-L1642) (human)
Assay: SEC-SAXS; unbound DOCK5^DHR2 at 80 μM; BioSEC-3 column; 20 mM Tris pH 8.0, 150 mM NaCl, 0.5 mM EDTA; 295 K

- stoichiometry N: 2
Substance: DHR2 domain of human DOCK5 (residues I1212-L1642) (domain or fragment)
